The data set in a line: amyloid nucleation score (Sup35N fusion, yeast selection) (log enrichment); library NNK2; higher = more nucleation; inactive = no reads after selection. Summed up: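 The nucleation score is a DiMSum log enrichment of output over input reads, centred on the mode score of non-aggregating sequences. Sequences under 100 input reads were excluded, and reads came from Illumina sequencing of plasmid inserts. Psi-negative yeast expressing Sup35N fused to peptides of 20 random codons were induced with 100 μM copper sulfate for 24 hours and grown 7 days at 30°C on medium lacking adenine and uracil. Random libraries had three technical output replicates.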

± gives the uncertainty stated by the source.

EVIANWLENGYYVSKTVFVD came in with an amyloid nucleation score of -0.026 ± 0.29.
As for WWFTAIGCSVGRLGSFNR, the figure is 2.06 ± 0.16.
For VSPAHPNYFPISP the value was -0.889 ± 1.1; for VYDQIYGRLANRLVHNKWRR, -0.341 ± 0.55; for CWMIQLVVLEWCAHGPRVAN, -0.304 ± 0.41.
Regarding NVLWVDSSLFRNLRPTSERE, the amyloid nucleation score turned out to be 0.276 ± 1.
SFDFLSLLSDRCLVLDVSPN showed an amyloid nucleation score of 0.761 ± 0.46.
YPEPKQWVSVSALHLVRGLR returned an amyloid nucleation score of 0.995 ± 0.2.
With IYQPCCCV, the amyloid nucleation score was determined as 0.76 ± 0.51.
As for LTWFWMHSYSSFRIENHVDD, the figure is 2.18 ± 0.12.
In the case of DLSNSIVLLGFDNSQWLRDA, the amyloid nucleation score came to 1.78 ± 0.095.
GSPIESGVFNANLWPYDAYG returned an amyloid nucleation score of -0.216 ± 0.41.
For FFYWL, the amyloid nucleation score entry is “inactive”.
For ILPYGVWTRIASIKLK the value was 0.789 ± 0.17; for SVLTIRLKMQGHWLPGAAGC, 3.66 ± 0.15; for ETRRSYV, 0.563 ± 0.38.
AHAPGPNEA displayed an amyloid nucleation score of 0.276 ± 0.8.
As to HSFTTMFWNSAMY, the amyloid nucleation score stood at 4.11 ± 0.062.
SATARKNILVSLGSVALFDR came in with an amyloid nucleation score of -0.82 ± 0.54.
Consider FLWVLIQANYLLTEMELSSG, for which the amyloid nucleation score is -0.447 ± 1.1.
Take TSIYYISNIA: the amyloid nucleation score turned out to be 0.568 ± 0.24.
For FYLRNSVMCTGPDLGNSTYM the value was -1.15 ± 1.1.
As to GTVNKSMVTSLTVPLIVC, the amyloid nucleation score turned out to be 0.442 ± 0.28.
Substance FVDWVMCIVMYVRLR had an amyloid nucleation score of -0.87 ± 0.41.
As for LLPSLWV, the amyloid nucleation score was -0.437 ± 0.63.
On to CNFSCGPKNQKNSMILWILN, for which the amyloid nucleation score entry was “inactive”.
Consider MGLNYLKQQAARYDEGGPS, for which the amyloid nucleation score stood at 1.5 ± 0.42.
As for CASRC, the figure is 4.11 ± 0.06; as for SRIIMSFTSGLCDNHSKLKC, 1.68 ± 0.19; as for IRADIHKLHLTIIYFKPPLV, -0.47 ± 0.78.
In turn, FKSLVVSLCIPSDMNNLKCS showed an amyloid nucleation score of -0.474 ± 0.79.
SESVL yielded an amyloid nucleation score of -1 ± 0.76.
For MFAVLTGSIFKWKWWTIGFR the value was -0.265 ± 0.28.
As for RGNMTLIETALAIVQSFSNH, the amyloid nucleation score came out at 9.064 ± 0.035.
For YRFKIMCLVSPHFV, the amyloid nucleation score was 0.736 ± 0.6.
For PVGFDHNF the value was -0.451 ± 0.56.
In the case of LSLKVKYFQKDTRVGNGEHK, the amyloid nucleation score was determined as 2.15 ± 0.076.
Consider WVNSKLGLKVSLIEAGVEVS, for which the amyloid nucleation score was -0.116 ± 0.43.
For VVRYLPCRRLPVWWVVCYEI the value was 0.488 ± 0.29.
Substance YINLIWFSYMFGESFARGQR returned an amyloid nucleation score of 4 ± 0.13.
KSAQEF returned an amyloid nucleation score of 0.839 ± 0.43.
FGIHHCLVCRLNLDFISGVD yielded an amyloid nucleation score of -0.877 ± 0.62.
Substance NTGGS displayed an amyloid nucleation score of -0.51 ± 0.61.
As for MYEGGSTLW, the figure is -0.441 ± 0.45; as for INSITKSVGGQRGARRY, 2.25 ± 0.21; as for PRSVFCCLDGRHTPRKMPIY, -0.47 ± 0.74.
As to KVPDKGEKLCSLLAFGYQG, the amyloid nucleation score was 0.736 ± 0.8.
As for ILIKYVLAPWSSSLTVWGKA, the amyloid nucleation score is -0.365 ± 0.3.
Substance NSMNVEHNMYNLFIYMPSFV showed an amyloid nucleation score of 7.065 ± 0.07.
For VLCTRRLPLYHSSNDQ the value was 0.128 ± 0.32; for LVVVKFTEVKALCFSVWGMG, 1.05 ± 0.57.
As for DAFGRIGPNEKLYDGEDECW, the figure is 0.902 ± 0.22; as for SSYGWVMLMEDFW, -1.23 ± 0.62.
For ATRCFSNWDTSACYMWKC the value was 8.074 ± 0.061; for KLHVGNCSFSKPSPAQAGSL, 0.34 ± 0.29.
YVCRSGWDLVAKFGILRREE displayed an amyloid nucleation score of 2.17 ± 0.2.
Substance RINNS displayed an amyloid nucleation score of -1.44 ± 0.45.
FISMLAISDIRHALDWHTSV came in with an amyloid nucleation score of 0.979 ± 0.17.
The substance WDVIELF gave an amyloid nucleation score of -1.4 ± 1.1.
In the case of MEGITRFSPPKNSEYIVLAG, the amyloid nucleation score was -0.613 ± 0.44.
With RPLPSFPNNRSERSNTSF, the amyloid nucleation score came to 0.851 ± 0.57.
HRFSLRNHCRSFSSGHLVHN yielded an amyloid nucleation score of -1.24 ± 0.75.
Regarding RKDLEVLNGLRICMVGSAPV, the amyloid nucleation score is -0.055 ± 1.1.
Take RILFNRS: the amyloid nucleation score amounted to 0.107 ± 0.4.
Turning to AETLPFWGNG, the amyloid nucleation score was 0.695 ± 0.57.
Regarding NGAYNACNNTGYRTHAY, the amyloid nucleation score is -0.818 ± 0.78.
In turn, VNDCYIILISIQALKGPICF displayed an amyloid nucleation score of 0.465 ± 0.8.
ILSFTGASNFVCYMIVAKAG had an amyloid nucleation score of 6.386 ± 0.033.
As for EFAELSSRQRFWHMFV, the figure is 1.04 ± 0.34.
For SNAVLWNTGIFIKKYC the value was -1.38 ± 0.64; for SARIGISRFCPHAVSPVITK, “inactive”.
Take EVNRAPNVSIVYRRNSGTAD: the amyloid nucleation score was -0.154 ± 0.4.
With FVQSVGNMVSNSGRAGGMPG, the amyloid nucleation score was determined as 0.444 ± 0.31.
With YYHYYFGFCDNM, the amyloid nucleation score amounted to 0.664 ± 0.33.
Substance CGLVLVIRVYITSLYNSRFM gave an amyloid nucleation score of 1.49 ± 0.14.
Regarding NWGWSAILKPLRFAVFRPWN, the amyloid nucleation score turned out to be 0.336 ± 0.6.
As for ALKFHGSNDSRFLI, the figure is -0.756 ± 1; as for MHKAFWPNLALFVMNGYGGV, 0.304 ± 0.42; as for VGTISVFIIFHASHVGILHS, -1.65 ± 0.53.
MGMLFMFVITKKSLVQDSLY: the amyloid nucleation score is 2.64 ± 0.19.
Take LAMEWSRCRTGPL: the amyloid nucleation score came to 1.68 ± 0.15.
Regarding ANSMLVF, the amyloid nucleation score was -0.573 ± 0.4.
IKVDSAWETIAVVM gave an amyloid nucleation score of 0.246 ± 0.33.
As to AWESIAFPCKVIYCYLRWTL, the amyloid nucleation score result was “inactive”.
In the case of FVLNHLAV, the amyloid nucleation score is -0.548 ± 0.54.
Turning to SMYLCDK, the amyloid nucleation score was -0.621 ± 0.48.
SFRFMFEVLSVVTYSTRGCA came in with an amyloid nucleation score of 2.92 ± 0.067.
Regarding SVIITIGLSIKSALRFRRFQ, the amyloid nucleation score was 4.57 ± 0.058.
The substance IYAGSSLTLWGDRDNKKCDR showed an amyloid nucleation score of -1.44 ± 1.
Regarding WFSRFSFCRKHYLTVNNWGL, the amyloid nucleation score was -0.566 ± 0.49.
As for MVHHGGCAWMSSACTCNVHC, the figure is 0.313 ± 0.27; as for VEMKGRWLIVNRRLGVSPQA, 0.097 ± 0.35; as for LSSLTLSMVA, 0.561 ± 0.62.
With YVLSSLRICYTMLSM, the amyloid nucleation score entry was “inactive”.
The substance YAVVFHVPLLV displayed an amyloid nucleation score of 5.11 ± 0.079.
For the substance VGSFSTVGCR, the amyloid nucleation score was determined as 0.003 ± 0.36.
Consider LSLFVQMMSVGTILLYRMTL, for which the amyloid nucleation score is 0.715 ± 0.34.
Take GGISKIFVWEVSIVHYSNIS: the amyloid nucleation score entry is “inactive”.
The substance GQYLVSKFGIEHTA came in with an amyloid nucleation score of 0.307 ± 0.17.
With LFKPLRNR, the amyloid nucleation score was -0.918 ± 0.33.
For MFCGDSCSTVPCCVCICFLY the value was 5.02 ± 0.058; for LETGNRRHTEYLCYDVWVIL, 0.394 ± 0.39; for VCVRTTWRKDGSISCTHKSP, 0.5 ± 0.18.
FHMVIGWYICLICNGFYTFF: the amyloid nucleation score result was “inactive”.
In the case of TVMYSGVG, the amyloid nucleation score was determined as 0.501 ± 0.46.
As for FSAVHAHQQNLLVVFYTCCA, the amyloid nucleation score was determined as 3.97 ± 0.08.
The substance NCYMSVLILVRLLGSHLKQS returned an amyloid nucleation score of -0.249 ± 1.1.
NSVDYSWCCNTSRIRMLVNR returned an amyloid nucleation score of 1.2 ± 0.1.
MFWKTWGVNCQATNRMEIRL registered an amyloid nucleation score of 2.99 ± 0.055.
CINYG registered an amyloid nucleation score of 0.96 ± 0.39.
ENYFCSYWFCFSWALG had an amyloid nucleation score of 6.362 ± 0.062.
The substance SVRPRPD had an amyloid nucleation score of 0.617 ± 0.23.
Turning to LMLRGLEEARAPRCESWPSW, the amyloid nucleation score came to 1.21 ± 0.34.
Consider IITIYLLAELNSVSVTSTSI, for which the amyloid nucleation score is 5.138 ± 0.03.
Substance SIGIRIEVLHAYLQTVISNA came in with an amyloid nucleation score of -0.639 ± 1.
As for VHEPAQV, the figure is 0.352 ± 0.35; as for RSSTLNRRKNKGGSTNVDCL, 0.355 ± 0.56.
Regarding IIILYCGRYLINWTFLSCAY, the amyloid nucleation score result is “inactive”.
As for TSNRRTYGWHDQTCGQGVWY, the figure is 1.1 ± 0.29.
SYLDILCVRIVSHHCSVSSK registered an amyloid nucleation score of 0.112 ± 0.46.
QSLSTKRRSVFFAGHQARGK returned an amyloid nucleation score of -0.42 ± 0.64.
Turning to TVGEPIIRLYRFVRFFCLAN, the amyloid nucleation score is -1.79 ± 0.78.
Take DGTAFMARPKETSIPDVSSS: the amyloid nucleation score was -0.593 ± 0.33.
For the substance GAFSYEMTRLKALGFWPL, the amyloid nucleation score stood at 5.87 ± 0.045.
As to IVRWCLLIIIF, the amyloid nucleation score entry was “inactive”.
Take WCIFL: the amyloid nucleation score came out at 4.87 ± 0.087.
As for ICPPAWFKRVNDGGVYALNE, the figure is 0.904 ± 0.48.
MDKCETEMYIMSAHVFRRLW: the amyloid nucleation score worked out at 6.229 ± 0.048.
Turning to MLELSATMSVHVQRLNASGH, the amyloid nucleation score is 9.009 ± 0.068.
For SNWFLWHTSTRFMIKENIMY, the amyloid nucleation score was 0.516 ± 0.74.
TSSWIMIRS: the amyloid nucleation score stood at 1.52 ± 0.19.
Substance NSLVAVSLSAWWKPGDGSFS returned an amyloid nucleation score of 6.29 ± 0.085.
The substance FCKVGFALLGVNQDVLYEMS showed an amyloid nucleation score of -0.714 ± 1.
In turn, VKLIETSLLSFLIE displayed an amyloid nucleation score of -0.33 ± 0.76.
For EDLYFTTGMLAKKCGPQGMG the value was 5.04 ± 0.069.
Take ITDGENSFAFLSNRDSS: the amyloid nucleation score entry was “inactive”.
For PSDSLVYVYDL the value was -0.41 ± 0.38.
For HFWCLRCDTIHDSFNYSVVQ the value was 7.373 ± 0.055; for NRTSYQNLIDNATTVSIMF, 1.55 ± 0.22; for SLSGVV, “inactive”.
Turning to RYNPCD, the amyloid nucleation score came out at 0.334 ± 0.44.

The values are drawn from the supplement of paper PMC12042874.
